Results on one substance are retold here after publication PMC3245798.

For this assay, the target named is soluble H ectodomain (sH, amino acids 60-617) of measles virus (measles virus) (UniProt P08362). The assay is described as follows: SPR.
Chain of UniProt P08362 (P08362 60-617 limits assumed): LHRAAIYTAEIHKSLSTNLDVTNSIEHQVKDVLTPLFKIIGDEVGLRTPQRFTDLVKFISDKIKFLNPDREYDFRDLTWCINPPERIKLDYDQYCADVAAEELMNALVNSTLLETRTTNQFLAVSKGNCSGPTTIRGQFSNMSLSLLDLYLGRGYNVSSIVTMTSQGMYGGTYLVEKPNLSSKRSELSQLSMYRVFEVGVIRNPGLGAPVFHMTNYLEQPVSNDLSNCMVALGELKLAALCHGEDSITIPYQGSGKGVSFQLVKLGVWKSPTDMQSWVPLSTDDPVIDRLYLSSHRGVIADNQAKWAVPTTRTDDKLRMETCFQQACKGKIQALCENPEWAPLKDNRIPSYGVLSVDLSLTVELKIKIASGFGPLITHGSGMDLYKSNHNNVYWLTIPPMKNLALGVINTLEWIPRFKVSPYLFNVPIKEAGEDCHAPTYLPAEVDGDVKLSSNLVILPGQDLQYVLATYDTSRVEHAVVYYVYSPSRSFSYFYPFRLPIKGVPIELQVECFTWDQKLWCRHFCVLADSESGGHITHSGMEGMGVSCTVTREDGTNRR

Substance “soluble nectin-4 ectodomain fused to human IgG1 Fc domain (N4VCC-Fc) (from UniProt Q96NY8 32-349) (Fc fusion)” yielded a kon relative to that of SLAM and H of 5 fold.
